From patent publication US20240376190A1 (Chugai, published 2024)

Assays:
[1] = molecular target: T1, FLAG-tagged human latent TGF-beta 1 (human, UniProt P01137 34-390); test: SPR (BIACORE), antibody captured on anti-human Fc, antigen as analyte, pH 7.4
T1 construct: Co-expressed with human furin, purified on anti-FLAG resin and by gel filtration; also called human latent TGF-beta 1 (SLC); hSLC

[2] = molecular target: T2, FLAG-tagged mouse latent TGF-beta 1 (mouse, UniProt P04202 34-390); test: as above
T2 construct: Co-expressed with human furin; also called mouse latent TGF-beta 1 (SLC); mSLC

[3] = molecular target: T1, FLAG-tagged human latent TGF-beta 1; test: SPR (BIACORE 8K), antibody captured on anti-human Fc, antigen as analyte, pH 5.8
[4] = molecular target: T2, FLAG-tagged mouse latent TGF-beta 1; test: as above
[5] = molecular target: T1, FLAG-tagged human latent TGF-beta 1; test: SPR (BIACORE 8K), antibody captured on anti-human Fc, antigen as analyte, pH 7.4
Procedure: (§1) A mouse anti-human Fc (GE Healthcare) was immobilized onto all flow cells of a CM5 sensor chip using amine coupling kit (GE Healthcare). Antibodies were captured onto the anti-human Fc sensor surfaces to around 20RU capture level, then recombinant latent TGF-beta 1 of human, cyno, and mouse was injected over the flow cell. All antibodies and analytes were prepared in ACES pH 7.4 containing 20 mM ACES, 150 mM NaCl, 0.05% Tween 20, 0.005% NaN₃. Sensor surface was regenerated each cycle with 3M MgCl₂.

[6] = molecular target: T2, FLAG-tagged mouse latent TGF-beta 1; test: as above
Procedure: as §1

Cyno latent TGF-beta 1 [7] = molecular target: T3, Cyno latent TGF-beta 1 (Cys at the 30th position substituted with Ser (C33S mutation)); test: SPR (BIACORE 8K), antibody captured on anti-human Fc, antigen as analyte, pH 5.8
T3 construct: The first reading lists it only inside the group m5; also called FLAG-tagged cynomolgus monkey latent TGF-beta 1; monkey latent TGF-beta 1 (SLC)
T3 sequence (latent TGF-beta 1 (LAP and mature TGF-beta 1), as listed by the source): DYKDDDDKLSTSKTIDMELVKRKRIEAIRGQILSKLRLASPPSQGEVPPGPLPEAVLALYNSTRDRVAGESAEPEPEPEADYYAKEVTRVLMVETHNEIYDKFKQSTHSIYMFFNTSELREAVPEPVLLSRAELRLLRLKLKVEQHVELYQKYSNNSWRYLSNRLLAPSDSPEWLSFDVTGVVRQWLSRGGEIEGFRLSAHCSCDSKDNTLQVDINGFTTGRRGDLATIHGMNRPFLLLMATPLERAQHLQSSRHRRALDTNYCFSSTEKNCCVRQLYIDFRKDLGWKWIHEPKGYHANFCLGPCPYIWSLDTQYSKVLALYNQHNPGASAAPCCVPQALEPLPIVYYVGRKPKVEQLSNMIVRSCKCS

Cyno latent TGF-beta 1 [8] = molecular target: T3, Cyno latent TGF-beta 1; test: SPR (BIACORE 8K), antibody captured on anti-human Fc, antigen as analyte, pH 7.4
Procedure: as §1

Cyno latent TGF-beta 1 [9] = molecular target: T3, Cyno latent TGF-beta 1; test: SPR (BIACORE 8K), ratio calculated from FIGS. 5 and 6
[10] = molecular target: T1, FLAG-tagged human latent TGF-beta 1; test: as above
[11] = molecular target: T2, FLAG-tagged mouse latent TGF-beta 1; test: as above

| Binder | Kd [1] | koff [1] | kon [1] | Kd [2] | koff [2] | kon [2] | Kd [3] | Kd [4] | Kd [5] | Kd [6] | further results |
| --- | --- | --- | --- | --- | --- | --- | --- | --- | --- | --- | --- |
| hT0947AE07-SG181 (antibody, human IgG1, kappa, Human IgG1; Heavy chain = VH + CH, light chain = VL + CL; also called non-pH dependent anti-human latent TGF-beta 1 antibody) heavy: not shown light: DIQMTQSPSSLSASVGDRVTITCQASQSISTYLAWYQQKPGQPPKLLIYAASTLESGVPSRFSGSGSGTDFTLTISSLQPEDFATYYCQSYSDGDSVGFGQGTKVEIKRTVAAPSVFIFPPSDEQLKSGTASVVCLLNNFYPREAKVQWKVDNALQSGNSQESVTEQDSKDSTYSLSSTLTLSKADYEKHKVYACEVTHQGLSSPVTKSFNRGEC | 1.02 nM | – | – | 1.04 nM | – | – | – | – | – | – | – |
| hT0947AE22-SG181 (antibody, human IgG1, kappa, V domains shown, Human IgG1; Heavy chain = VH + CH, light chain = VL + CL) VH: QVQLVESGGGVVQPGRSLRLSCAASGFHFSREAMNWIRQPPGKGLEWIGYIYTSGTTYRANWARGRFTISRDNSKNTLYLQMNSLRAEDTAVYYCARGWHIFGHHYWVMHFWGQGTLVTVSS VL: DIQMTQSPSSLSASVGDRVTITCQASQSISTYLAWYQQKPGQPPKLLIYAASTLESGVPSRFSGSGSGTDFTLTISSLQPEDFATYYCQSYSDGDSVIFGQGTKVEIKR | 3.6 nM | 0.00124 s⁻¹ | 344000 M⁻¹ s⁻¹ | 5.76 nM | 0.00376 s⁻¹ | 653000 M⁻¹ s⁻¹ | – | – | – | – | – |
| hT0947AE24-SG181 (antibody, human IgG1, kappa, V domains shown, Human IgG1; Heavy chain = VH + CH, light chain = VL + CL) VH: QVQLVESGGGVVQPGRSLRLSCAASGFHFSSEAMNWIRQPPGKGLEWIGYIYTSGTTYRANWARGRFTISRDNSKNTLYLQMNSLRAEDTAVYYCARGWHIFGHHYWVMHFWGQGTLVTVSS VL: DIQMTQSPSSLSASVGDRVTITCQASQSISTYLAWYQQKPGQPPKLLIYAASTLEWGVPSRFSGSGSGTDFTLTISSLQPEDFATYYCQSYSDGDSVGFGQGTKVEIKR | 2.55 nM | 0.001 s⁻¹ | 393000 M⁻¹ s⁻¹ | 7.03 nM | 0.00441 s⁻¹ | 627000 M⁻¹ s⁻¹ | – | – | – | – | – |
| T0947H0053H0156-SG181/T0947L001L0049-SK1 (antibody, human IgG1, kappa, V domains shown, Human IgG1; also called the pH dependent antibody; parent pH-dependent anti human latent TGF-beta 1 antibody) VH: QVQLVESGGGVVQPGRSLRLSCAASGFTFSSEAMNWIRQPPGKGLEWIGYIYTSGTTYRANWARGRFTISRDNSKNTLYLQMNSLRAEDTAVYYCARGTHIYDHYYWVHHLWGQGTLVTVSS VL: DIQMTQSPSSLSASVGDRVTITCQASQSISTYLAWYQQKPGQPPKLLIYAASTLESGVPSRFSGSGSGTDFTLTISSLQPEDFATYYCQSYSDGDSVGFGQGTKVEIKR | – | – | – | 16.6 nM | – | – | – | – | – | – | – |
| hT0947AE34-SG191 (antibody, human IgG1, V domains shown, Human IgG1, SG191; also called hT0497AE34-SG191) VH: QVQLVESGGGVVQPGRSLRLSCAASGFHFSSEAMNWIRQPPGKGLEWIGYIYTSGTTYRANWARGRFTISRDNSKNTLYLQMNSLRAEDTAVYYCARGWHIFDHHYWVMHAWGQGTLVTVSS VL: DIQMTQSPSSLSASVGDRVTITCQASQSISTYLAWYQQKPGQPPKLLIYAASTLEYGVPSRFSGSGSGTDFTLTISSLQPEDFATYYCQSYSDGDSVIFGQGTKVEIKR | – | – | – | – | – | – | 309 nM | 346 nM | 2.29 nM | 3.67 nM | – |
| hT0947AE23-SG181 (antibody, human IgG1, kappa, V domains shown, Human IgG1; Heavy chain = VH + CH, light chain = VL + CL) VH: QVQLVESGGGVVQPGRSLRLSCAASGFHFSREAMNWIRQPPGKGLEWIGYIYTSGTTYRANWARGRFTISRDNSKNTLYLQMNSLRAEDTAVYYCARGTHLFGHHYWVMHSWGQGTLVTVSS VL: DIQMTQSPSSLSASVGDRVTITCQASQSISTYLAWYQQKPGQPPKLLIYAASTLEYGVPSRFSGSGSGTDFTLTISSLQPEDFATYYCQSYSDGDSVVFGQGTKVEIKR | 3.25 nM | 0.00108 s⁻¹ | 333000 M⁻¹ s⁻¹ | 4.19 nM | 0.00187 s⁻¹ | 445000 M⁻¹ s⁻¹ | – | – | – | – | – |
| hT0947AE20-SG191 (antibody, human IgG1, Human IgG1, SG191; also called hT0497AE20-SG191) heavy: QVQLVESGGGVVQPGRSLRLSCAASGFLFSREAMNWIRQPPGKGLEWIGYIYTSGTTYRANWARGRFTISRDNSKNTLYLQMNSLRAEDTAVYYCARGWHIFGHQYWVMHFWGQGTLVTVSSASTKGPSVFPLAPSSKSTSGGTAALGCLVKDYFPEPVTVSWNSGALTSGVHTFPAVLQSSGLYSLSSVVTVPSSSLGTQTYICNVNHKPSNTKVDKRVEPKSCDKTHTCPPCPAPELRRGPSVFLFPPKPKDTLMISRTPEVTCVVVDVSHEDPEVKFNWYVDGVEVHNAKTKPREEQYNSTYRVVSVLTVLHQDWLNGKEYKCKVSNKALPAPIEKTISKAKGQPREPQVYTLPPSREEMTKNQVSLTCLVKGFYPSDIAVEWESNGQPENNYKTTPPVLDSDGSFFLYSKLTVDKSRWQQGNVFSCSVLHEALHAHYTRKELSLSP light: DIQMTQSPSSLSASVGDRVTITCQASQSISTYEAWYQQKPGQPPKLLIYAASTLESGVPSRFSGSGSGTDFTLTISSLQPEDFATYYCQSYSDGDSVIFGQGTKVEIKRTVAAPSVFIFPPSDEQLKSGTASVVCLLNNFYPREAKVQWKVDNALQSGNSQESVTEQDSKDSTYSLSSTLTLSKADYEKHKVYACEVTHQGLSSPVTKSFNRGEC | – | – | – | – | – | – | 395 nM | 669 nM | 3.84 nM | 5.12 nM | Kd (Cyno latent TGF-beta 1 [7]): 427 nM; koff (Cyno latent TGF-beta 1 [7]): 0.0553 s⁻¹; kon (Cyno latent TGF-beta 1 [7]): 129000 M⁻¹ s⁻¹; koff [3]: 0.0538 s⁻¹; kon [3]: 136000 M⁻¹ s⁻¹; koff [4]: 0.107 s⁻¹; kon [4]: 160000 M⁻¹ s⁻¹; Kd (Cyno latent TGF-beta 1 [8]): 3.78 nM; koff (Cyno latent TGF-beta 1 [8]): 0.001 s⁻¹; kon (Cyno latent TGF-beta 1 [8]): 266000 M⁻¹ s⁻¹; koff [5]: 0.00104 s⁻¹; kon [5]: 271000 M⁻¹ s⁻¹; koff [6]: 0.00242 s⁻¹; kon [6]: 472000 M⁻¹ s⁻¹; KD ratio pH5.8/pH7.4 (Cyno latent TGF-beta 1 [9]): 113; koff ratio pH5.8/pH7.4 (Cyno latent TGF-beta 1 [9]): 55.3; KD ratio pH5.8/pH7.4 [10]: 103; koff ratio pH5.8/pH7.4 [10]: 51.7; KD ratio pH5.8/pH7.4 [11]: 131; koff ratio pH5.8/pH7.4 [11]: 44.2 |
| hT0947AE27-SG191 (antibody, human IgG1, V domains shown, Human IgG1, SG191; also called hT0497AE27-SG191) VH: QVQLVESGGGVVQPGRSLRLSCAASGFHFSNEAMNWIRQPPGKGLEWIGYIYTTGTTYRANWARGRFTISRDNSKNTLYLQMNSLRAEDTAVYYCARGWHIFGHHYWVMHFWGQGTLVTVSS VL: DIQMTQSPSSLSASVGDRVTITCQASQRISTYVAWYQQKPGQPPKLLIYAASTLESGVPSRFSGSGSGTDFTLTISSLQPEDFATYYCQSYSDGDSVIFGQGTKVEIKR | – | – | – | – | – | – | 482 nM | 803 nM | 3.93 nM | 5.43 nM | – |

Continued, in another order:

| Kd [1] | koff [1] | kon [1] | Kd [2] | koff [2] | kon [2] | Kd [3] | Kd [4] | Kd [5] | Kd [6] | Binder | further results |
| --- | --- | --- | --- | --- | --- | --- | --- | --- | --- | --- | --- |
| 2.95 nM | 0.00111 s⁻¹ | 377000 M⁻¹ s⁻¹ | 4.39 nM | 0.00294 s⁻¹ | 670000 M⁻¹ s⁻¹ | – | – | – | – | hT0947AE20-SG181 (antibody, human IgG1, kappa, Human IgG1) heavy: not shown light: DIQMTQSPSSLSASVGDRVTITCQASQSISTYEAWYQQKPGQPPKLLIYAASTLESGVPSRFSGSGSGTDFTLTISSLQPEDFATYYCQSYSDGDSVIFGQGTKVEIKRTVAAPSVFIFPPSDEQLKSGTASVVCLLNNFYPREAKVQWKVDNALQSGNSQESVTEQDSKDSTYSLSSTLTLSKADYEKHKVYACEVTHQGLSSPVTKSFNRGEC | – |
| 3.88 nM | 0.00152 s⁻¹ | 391000 M⁻¹ s⁻¹ | 4.48 nM | 0.0353 s⁻¹ | 7.89e+06 M⁻¹ s⁻¹ | – | – | – | – | hT0947AE25-SG181 (antibody, human IgG1, kappa, V domains shown, Human IgG1; Heavy chain = VH + CH, light chain = VL + CL) VH: QVQLVESGGGVVQPGRSLRLSCAASGFHFSNEAMNWIRQPPGKGLEWIGYIYTSGTTYRSNWARGRFTISRDNSKNTLYLQMNSLRAEDTAVYYCARGWHIFGHQYWVMHFWGQGTLVTVSS VL: DIQMTQSPSSLSASVGDRVTITCQASQSISTYEAWYQQKPGQPPKLLIYAASTLESGVPSRFSGSGSGTDFTLTISSLQPEDFATYYCQSYSDGDSVGFGQGTKVEIKR | – |
| 3.33 nM | 0.0012 s⁻¹ | 361000 M⁻¹ s⁻¹ | 5.34 nM | 0.00864 s⁻¹ | 1.62e+06 M⁻¹ s⁻¹ | – | – | – | – | hT0947AE26-SG181 (antibody, human IgG1, kappa, V domains shown, Human IgG1; Heavy chain = VH + CH, light chain = VL + CL) VH: QVQLVESGGGVVQPGRSLRLSCAASGFHFSNEAMNWIRQPPGKGLEWIGYIYTSGTTYRSNWARGRFTISRDNSKNTLYLQMNSLRAEDTAVYYCARGWHIFGHQYWVMHFWGQGTLVTVSS VL: DIQMTQSPSSLSASVGDRVTITCQASQSISTYEAWYQQKPGQPPKLLIYAASTLESGVPSRFSGSGSGTDFTLTISSLQPEDFATYYCQSYSDGDSVKFGQGTKVEIKR | – |
| – | – | – | – | – | – | 222 nM | 1570 nM | 1.32 nM | 3.61 nM | hT0947AE37-SG191 (antibody, human IgG1, V domains shown, Human IgG1, SG191; also called hT0497AE37-SG191) VH: QVQLVESGGGVVQPGRSLRLSCAASGFHFSSEAMNWIRQPPGKGLEWIGYIYVSGTTYRADWARGRFTISRDNSKNTLYLQMNSLRAEDTAVYYCARGWHIFGHHYWVMHAWGQGTLVTVSS VL: DIQMTQSPSSLSASVGDRVTITCQASESISTYLAWYQQKPGQPPKLLIYAASTLESGVPSRFSGSGSGTDFTLTISSLQPEDFATYYCQSYSDGDSVIFGQGTKVEIKR | – |
